Experimental data from the supplement of paper PMC11908140.

B1: library; numbered along this chain (parent)
chain: MRKPRAAVGSGHRKQAASQEGRQKHAKNNSQAKPSACDGLARQPEEVVLQASVSSYHLFRDVAEVTAFRGSLLSWYDQEKRDLPWRRRAEDEMDLDRRAYAVWVSEVMLQQTQVATVINYYTGWMQKWPTLQDLASASLEEVNQLWAGLGYYSRGRRLQEGARKVVEELGGHMPRTAETLQQLLPGVGRYTAGAIASIAFGQATGVVDGNVARVLCRVRAIGADPSSTLVSQQLWGLAQQLVDPARPGDFNQAAMELGATVCTPQRPLCSQCPVESLCRARQRVEQEQLLASGSLSGSPDVEECAPNTGQCHLCLPPSEPWDQTLGVVNFPRKASRKPPREESSATCVLEQPGALGAQILLVQRPNSGLLAGLWEFPSVTWEPSEQLQRKALLQELQRWAGPLPATHLRHLGEVVHTFSHIKLTYQVYGLALEGQTPVTTVPPGARWLTQEEFHTAAVSTAMKKVFRVYQGQQPGTCMGSKRSQVSSPCSRKKPRMGQQVLDNFFRSHISTDAHSLNSAAQ

Variants of: B1
Assay: 8OG:A repair function score (normalized; synonymous = 0, nonsense = -1) (normalized log-likelihood score); higher = more repair activity (WT-like)
Conditions: with 8OG:A DNA repair reporter (GFP) in HEK-293 MUTYH KO cells
Method: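 Saturation mutagenesis (NNN codon scan) of the MUTYH cDNA (521-aa nuclear isoform NM_001048174.1 / NP_001041639), stably expressed under doxycycline induction in HEK-293 MUTYH knockout cells. Cells were co-transfected with an 8OG:A-bearing GFP repair reporter plus mCherry and sorted 72 h later into GFP+ and GFP− bins, three replicates per tile. The Rosace log2 enrichment (GFP+ vs GFP−) was converted per tile to a normalized function score with synonymous variants centered at 0 and nonsense variants (codons 1-471) at -1; low-abundance variants were removed.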

| Variant | 8OG:A repair function score |
| --- | --- |
| MRKPRAAVGSGHRKQAASQEGRQKHAKNNSQAKPSACDGLARQPEEVVLQASVSSYHLFRDVAEVTAFRGSLLSWYDQEKRDLPWRRRAEDEMDLDRRAYAVWVSEVMLQQTQVATVINYYTGWMQKWPTLQDLASASLEEVNQLWAGLGYYSRGRRLQEGARKVVEPLGGHMPRTAETLQQLLPGVGRYTAGAIASIAFGQATGVVDGNVARVLCRVRAIGADPSSTLVSQQLWGLAQQLVDPARPGDFNQAAMELGATVCTPQRPLCSQCPVESLCRARQRVEQEQLLASGSLSGSPDVEECAPNTGQCHLCLPPSEPWDQTLGVVNFPRKASRKPPREESSATCVLEQPGALGAQILLVQRPNSGLLAGLWEFPSVTWEPSEQLQRKALLQELQRWAGPLPATHLRHLGEVVHTFSHIKLTYQVYGLALEGQTPVTTVPPGARWLTQEEFHTAAVSTAMKKVFRVYQGQQPGTCMGSKRSQVSSPCSRKKPRMGQQVLDNFFRSHISTDAHSLNSAAQ [E168P] | -0.661 |
| MRKPRAAVGSGHRKQAASQEGRQKHAKNNSQAKPSACDGLARQPEEVVLQASVSSYHLFRDVAEVTAFRGSLLSWYDQEKRDLPWRRRAEDEMDLDRRAYAVWVSEVMLQQTQVATVINYYTGWMQKWPTLQDLASASLEEVNQLWAGLGYYSRGRRLQEGARKVVEELGGHMPRTAETLQQLLPGVGRYTAGAIASIAFGQATGVVDGNVARVLCRVRAIGADPSSTLVSQQLWGLAQQLVDPARPGDFNQAAMELGATVCTPQRPLCSQCPVESLCRARQRVEQEQLLASGSLSGSPDVEECAPNTGQCHLCLPPSEPWDQTLGVVNVPRKASRKPPREESSATCVLEQPGALGAQILLVQRPNSGLLAGLWEFPSVTWEPSEQLQRKALLQELQRWAGPLPATHLRHLGEVVHTFSHIKLTYQVYGLALEGQTPVTTVPPGARWLTQEEFHTAAVSTAMKKVFRVYQGQQPGTCMGSKRSQVSSPCSRKKPRMGQQVLDNFFRSHISTDAHSLNSAAQ [F330V] | -0.145 |
| MRKPRAAVGSGHRKQAASQEGRQKHAKNNSQAKPSACDGLARQPEEVVLQASVSSYHLFRDVAEVTAFRGSLLSWYDQEKRDLPWRRRAEDEMDLDRRAYAVWESEVMLQQTQVATVINYYTGWMQKWPTLQDLASASLEEVNQLWAGLGYYSRGRRLQEGARKVVEELGGHMPRTAETLQQLLPGVGRYTAGAIASIAFGQATGVVDGNVARVLCRVRAIGADPSSTLVSQQLWGLAQQLVDPARPGDFNQAAMELGATVCTPQRPLCSQCPVESLCRARQRVEQEQLLASGSLSGSPDVEECAPNTGQCHLCLPPSEPWDQTLGVVNFPRKASRKPPREESSATCVLEQPGALGAQILLVQRPNSGLLAGLWEFPSVTWEPSEQLQRKALLQELQRWAGPLPATHLRHLGEVVHTFSHIKLTYQVYGLALEGQTPVTTVPPGARWLTQEEFHTAAVSTAMKKVFRVYQGQQPGTCMGSKRSQVSSPCSRKKPRMGQQVLDNFFRSHISTDAHSLNSAAQ [V104E] | -0.936 |
| MRKPRAAVGSGHRKQAASQEGRQKHAKNNSQAKPSACDGLARQPEEVVLQASVSSYHLFRDVAEVTAFRGSLLSWYDQEKRDLPWRRRAEDEMDLDRRAYAVWVSEVMLQQTQVATVINYYTGWMQKWPTLQDLASASLEEVNQLWAGLGYYSRGRRLQEGARKVVEELGGHMPRTAETLQQLLPGVGRYTAGAIASIAFGQATGVVDGNVARVLCRVRAIGADPSSTLVSQQLWGLAQQLVDPARPGDFNQAAMELGATVCTPQRPLCSQCPVESLCRARQRVEQEQLLASGSLSGSPDVEECAPNTGQCHLCLPPSEPWDQTLGVVNFKRKASRKPPREESSATCVLEQPGALGAQILLVQRPNSGLLAGLWEFPSVTWEPSEQLQRKALLQELQRWAGPLPATHLRHLGEVVHTFSHIKLTYQVYGLALEGQTPVTTVPPGARWLTQEEFHTAAVSTAMKKVFRVYQGQQPGTCMGSKRSQVSSPCSRKKPRMGQQVLDNFFRSHISTDAHSLNSAAQ [P331K] | -0.332 |
| MRKPRAAVGSGHRKQAASQEGRQKHAKNNSQAKPSACDGLARQPEEVVLQASVSSYHLFRDVAEVTAFRGSLLSWYDQEKRDLPWRRRAEDEMDLDRRAYAVWVSEVMLQQTQVATVINYYTGWMQKWPTLQDLASASLEEVNQLWAGLGYYSRGRRLQEGARKVVEELGGHMPRTAETLQQLLPGVGRYTAGAIASIAFGQATGVVDGNVARVLCRVRAIGADPSSTLVSQQLWGLAQQLVDPARPGDFNQAAMELGATVCTPQRPLCSQCPVESLCRARQRVEQEQLLASGSLSGSPDVEECAPNTGQCHLCLPPSEPWDQTLGVVNFPRKASRKPPREESSATCVLEQPGALGAQILLVQRPNSGLLAGLWEFPSVTWEPSEQLQRKALLQELQRWAGPLPATHLRHLGEVVHTFSHIKLTYQVYGLALEGQTPVTHVPPGARWLTQEEFHTAAVSTAMKKVFRVYQGQQPGTCMGSKRSQVSSPCSRKKPRMGQQVLDNFFRSHISTDAHSLNSAAQ [T440H] | -0.111 |
| MRKPRAAVGSGHRKQAASQEGRQKHAKNNSQAKPSACDGLARQPEEVVLQASVSSYHLFRDVAEVTAFRGSLLSWYDQEKRDLPWRRRAEDEMDLDRRAYAVWVSEVMLQQTQVATVINYYTGWMQKWPTLQDLASASLEEVNQLWAGLGYYSRGRRLQEGARKVVEELGGHMPRTAETLQQLLPGVGRYTAGAIASIAFGQATGVVDGNVARVLCRVRAIGADPSSTLVSQQLWGPAQQLVDPARPGDFNQAAMELGATVCTPQRPLCSQCPVESLCRARQRVEQEQLLASGSLSGSPDVEECAPNTGQCHLCLPPSEPWDQTLGVVNFPRKASRKPPREESSATCVLEQPGALGAQILLVQRPNSGLLAGLWEFPSVTWEPSEQLQRKALLQELQRWAGPLPATHLRHLGEVVHTFSHIKLTYQVYGLALEGQTPVTTVPPGARWLTQEEFHTAAVSTAMKKVFRVYQGQQPGTCMGSKRSQVSSPCSRKKPRMGQQVLDNFFRSHISTDAHSLNSAAQ [L237P] | -0.931 |
